Target: 6His-PPIase domain of PIN1 (human) (UniProt Q13526)
Assay: fluorescence polarization competition; free Pintide displaces fluorescein-tagged Pintide from the 6His-PPIase domain of PIN1

- IC50: 7 to 10 µM
Substance: Pintide (WFYpSPFLE) without the fluorescein tag (peptide)
